No end group written: not given here.

The target of assay [1] is T1, Recombinant water-soluble HLA-DR-2 molecules (DRB1*1501) (human, UniProt P01903 26-216; P01911 30-227, limits assumed).
T1 construct: Expressed in Drosophila S2 cells and purified on a Protein A-LB3.1 column 'as described (Kalandadze et al. 1996)'; also called HLA DR-2 (DRB1*1501); purified HLA-DR-2
The assay is described as follows: competition ELISA, unlabeled inhibitor against biotinylated MBP 86-100 on soluble HLA-DR-2 (LB3.1 capture, streptavidin-AP). Background: An ELISA detects its analyte on a solid surface through an enzyme-linked reagent.

Assay [2] deals with T2, Recombinant water-soluble HLA-DR-2 molecules (DRB1*1501) (human).
T2 chain 1: not shown
T2 chain 2: not shown
The experiment in a line: ELISA, biotinylated MBP 86-100 (0.13 uM) on soluble HLA-DR-2, no competitor; background 0.1.

B1: MBP 85-99 (SEQ ID NO: 2), unlabeled (peptide)
peptide: ENPVVHFFKNIVTPR
notes: also called unlabeled MBP 85-99 peptide; synthetic unlabeled peptide control MBP 85-99
With B1, the binding result in assay [1] is “binds”.

B2: Biotinylated MBP 86-100 (SEQ ID NO: 1) (peptide)
peptide: SGSGNPVVHFFKNIVTPRT
modifications: not fully specified
As to B2, the signal at 410 nm without competitor (absorbance at 410 nm) in assay [2] lay within 0.8 to 0.9.

Source of the values: patent publication US20040038887A1 (Harvard, published 2004).
